Results: PMC9418156

B1: CD98 (SLC3A2, 4F2hc): Qm (protein)
parent chain: MELQPPEASIAVVSIPRQLPGSHSEAGVQGLSAGDDSELGSHCVAQTGLELLASGDPLPSASQNAEMIETGSDCVTQAGLQLLASSDPPALASKNAEVTGTMSQDTEVDMKEVELNELEPEKQPMNAASGAAMSLAGAEKNGLVKIKVAEDEAEAAAAAKFTGLSKEELLKVAGSPGWVRTRWALLLLFWLGWLGMLAGAVVIIVRAPRCRELPAQKWWHTGALYRIGDLQAFQGHGAGNLAGLKGRLDYLSSLKVKGLVLGPIHKNQKDDVAQTDLLQIDPNFGSKEDFDSLLQSAKKKSIRVILDLTPNYRGENSWFSTQVDTVATKVKDALEFWLQAGVDGFQVRDIENLKDASSFLAEWQNITKGFSEDRLLIAGTNSSDLQQILSLLESNKDLLLTSSYLSDSGSTGEHTKSLVTQYLNATGNRWCSWSLSQARLLTSFLPAQLLRLYQLMLFTLPGTPVFSYGDEIGLDAAALPGQPMEAPVMLWDESSFPDIPGAVSANMTVKGQSEDPGSLLSLFRRLSDQRSKERSLLHGDFHAFSAGPGLFSYIRHWDQNERFLVVLNFGDVGLSAGLQASDLPASASLPAKADLLLSTQPGREEGSPLELERLKLEPHEGLLLRFPYAA
B2: CD98 (SLC3A2, 4F2hc): tunicamycin (protein)
parent chain: B1 parent chain
B3: CD98 (SLC3A2, 4F2hc): N424Q (protein)
parent chain: B1 parent chain
B4: CD98 (SLC3A2, 4F2hc): Qm (N365/381/424/506Q) (protein)
parent chain: B1 parent chain
B5: CD98 (SLC3A2, 4F2hc): N506Q (protein)
parent chain: B1 parent chain
B6: CD98 (SLC3A2, 4F2hc): Tm (N365/381/424Q) (protein)
parent chain: B1 parent chain
B7: CD98 (SLC3A2, 4F2hc): N381Q (protein)
parent chain: B1 parent chain
B8: CD98 (SLC3A2, 4F2hc): N365Q (protein)
parent chain: B1 parent chain
B9: CD98 (SLC3A2, 4F2hc): Dm (N381/424Q) (protein)
parent chain: B1 parent chain

Columns and labels:
[1] = surface biotinylation, anti-LAT1 blot; conditions: glycan lost; control: wild type
[2] = cycloheximide chase, anti-FLAG blot; conditions: glycan lost; control: wild type
[3] = brefeldin A washout, confocal time course; conditions: glycan lost; control: wild type
[4] = cell surface biotinylation, anti-FLAG blot; conditions: glycan lost; control: wild type
[5] = co-transfection with HA-LAT1, brefeldin washout, confocal; conditions: glycan lost; control: wild type
[6] = tunicamycin then surface biotinylation (Fig. S1); conditions: glycan lost; control: vehicle (DMSO)
[7] = confocal, surface anti-CD98 vs anti-FLAG, HEK293; conditions: glycan lost; control: wild type

Protein	localisation_or_trafficking [7]	other results
B1		other: routing of partner LAT1 to plasma membrane [1]: abolishes; degradation_or_half_life, other: percent of initial protein after 6 h [2]: decreases, <20 vs >50; localisation_or_trafficking [3]: decreases; localisation_or_trafficking [4]: decreases; other: routing of partner LAT1 to plasma membrane [5]: decreases
B2		localisation_or_trafficking [6]: decreases
B3	no change	
B4	decreases	
B5	no change	
B6	changes	
B7	no change	
B8	no change	
B9	changes	
